According to patent US20130189714A1, “METHOD FOR THE DETECTION AND/OR QUANTIFICATION OF THE INTERACTION OF PLATELETS WITH INTERACTION PARTNERS” (SANOFI, priority 2010, published 2013):
Values belong to the substance of their own block, whether it stands above or below them.

Legend:
[1] = target: collagen receptor on live human platelets (human); assay: platelet adhesion to rat tail collagen 1 coated wells vs BSA, 6 plates under automated conditions, Acumen cytometry
[2] = target: platelet glycoprotein GpIb alpha (CD42b antigen), on live human platelets (human) (UniProt P07359); assay: platelet adhesion to vWF-A1 coated wells, AK2 at 2 ug/ml, Acumen cytometry
Chain of platelet glycoprotein GpIb alpha (CD42b antigen), on live human platelets (human) (P07359 17-652): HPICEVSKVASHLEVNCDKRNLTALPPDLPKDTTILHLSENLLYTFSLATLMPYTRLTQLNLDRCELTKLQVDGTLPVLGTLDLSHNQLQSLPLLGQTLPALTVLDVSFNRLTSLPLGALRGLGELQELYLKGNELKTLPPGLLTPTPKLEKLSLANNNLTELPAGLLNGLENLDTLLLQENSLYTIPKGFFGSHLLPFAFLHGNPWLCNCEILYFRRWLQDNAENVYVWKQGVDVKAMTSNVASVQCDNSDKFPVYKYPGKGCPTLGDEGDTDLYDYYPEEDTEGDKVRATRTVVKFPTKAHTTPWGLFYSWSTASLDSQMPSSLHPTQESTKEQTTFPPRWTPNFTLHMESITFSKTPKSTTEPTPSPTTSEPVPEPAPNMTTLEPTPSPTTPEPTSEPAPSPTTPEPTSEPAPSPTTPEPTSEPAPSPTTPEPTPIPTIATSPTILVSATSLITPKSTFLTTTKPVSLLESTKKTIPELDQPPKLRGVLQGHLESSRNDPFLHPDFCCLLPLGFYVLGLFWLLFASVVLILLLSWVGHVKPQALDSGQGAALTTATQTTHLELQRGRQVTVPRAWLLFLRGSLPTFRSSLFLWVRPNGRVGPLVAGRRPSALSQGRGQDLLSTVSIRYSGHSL

[3] = target: platelet glycoprotein GpIb alpha (CD42b antigen), on live human platelets (human) (UniProt P07359); assay: platelet adhesion to vWF-A1 coated wells vs BSA, automated run of 30 plates, Acumen cytometry
[4] = target: platelet glycoprotein GpIb alpha (CD42b antigen), on live human platelets (human) (UniProt P07359); assay: platelet adhesion to coated wells, optimized wash program, Acumen cytometry; reference BSA-coated wells
[5] = target: platelet glycoprotein GpIb alpha (CD42b antigen), on live human platelets (human) (UniProt P07359); assay: platelet adhesion to vWF-A1 coated wells vs BSA-coated wells, optimized washer settings, Acumen cytometry

Chain of vWF-A1 (von Willebrand factor A1 domain, Aa 475-706), His-tagged recombinant protein (ligand) (chain): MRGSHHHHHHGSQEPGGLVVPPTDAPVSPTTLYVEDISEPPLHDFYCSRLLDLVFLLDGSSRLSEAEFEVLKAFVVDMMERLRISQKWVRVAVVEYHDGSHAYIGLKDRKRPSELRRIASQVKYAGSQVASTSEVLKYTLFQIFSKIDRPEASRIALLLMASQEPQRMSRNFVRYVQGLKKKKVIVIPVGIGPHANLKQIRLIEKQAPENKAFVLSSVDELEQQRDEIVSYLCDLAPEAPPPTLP

- S/B [1]: 20 fold
Substance: Collagen I (rat tail, SIGMA C8897) (from UniProt P02454 152-1207; P02466 86-1125) (ligand)

- % inhibition of platelet adhesion [2]: 90%
Substance: Mouse anti-human CD42b monoclonal antibody, clone AK2 (Chemicon international, catalog No. CBL166)

- S/B [3]: 20 fold
- S/B (number platelets attached to vWF-A1 vs BSA) [4]: 70 fold
- S/B [5]: 78 fold
Substance: vWF-A1 (von Willebrand factor A1 domain, Aa 475-706), His-tagged recombinant protein (ligand)
